According to article PMC10687032, “Phosphorylation of USP27X by GSK3β maintains the stability and oncogenic functions of CBX2” (Cell Death & Disease, 2023):
Blank lines part the entries; values can stand above or below the molecule they belong to.

Experiments:
CBX2 = CBX2 (UniProt Q14781); experiment: co-IP with anti-Myc, anti-HA immunoblot; conditions: reference: HA-USP27X wild type; sites S135
His-Myc-CBX2 = biological target: T1, His-Myc-CBX2 (human, UniProt Q14781 1-532); experiment: pull-down; GST-USP27X bound to glutathione-Sepharose 4B beads incubated with His-Myc-CBX2 for 2 h at 4 °C; retained proteins immunoblotted; conditions: both partners purified
T1 construct: Chromobox protein homolog 2 (CBX2), human; the His-Myc construct is named only in the pull-down methods; the cloning of a His-Myc construct is not described; also called Purified Myc-CBX2
T1 sequence (looked up): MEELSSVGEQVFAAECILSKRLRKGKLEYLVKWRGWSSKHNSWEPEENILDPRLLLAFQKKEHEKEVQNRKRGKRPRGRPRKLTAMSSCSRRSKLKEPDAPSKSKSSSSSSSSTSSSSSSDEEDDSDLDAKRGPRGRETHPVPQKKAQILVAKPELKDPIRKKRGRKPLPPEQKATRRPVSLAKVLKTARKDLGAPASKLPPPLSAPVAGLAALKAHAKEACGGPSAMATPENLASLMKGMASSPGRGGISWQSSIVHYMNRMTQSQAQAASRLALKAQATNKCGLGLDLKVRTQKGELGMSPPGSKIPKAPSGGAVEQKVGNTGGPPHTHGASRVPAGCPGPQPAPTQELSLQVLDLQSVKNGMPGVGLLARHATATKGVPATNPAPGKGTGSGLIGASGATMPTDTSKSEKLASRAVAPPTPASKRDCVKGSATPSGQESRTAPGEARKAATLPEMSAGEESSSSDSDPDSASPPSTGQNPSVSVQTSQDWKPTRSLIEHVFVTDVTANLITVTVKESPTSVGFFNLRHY

binding against the reference (CBX2): weaker
Molecule: USP27X (from UniProt A6NNY8) HA-USP27X S135A

binding result (His-Myc-CBX2): binds
B1: GST-USP27X (enzyme, human, UniProt A6NNY8 1-438, looked up)
chain: MCKDYVYDKDIEQIAKEEQGEALKLQASTSTEVSHQQCSVPGLGEKFPTWETTKPELELLGHNPRRRRITSSFTIGLRGLINLGNTCFMNCIVQALTHTPILRDFFLSDRHRCEMPSPELCLVCEMSSLFRELYSGNPSPHVPYKLLHLVWIHARHLAGYRQQDAHEFLIAALDVLHRHCKGDDVGKAANNPNHCNCIIDQIFTGGLQSDVTCQACHGVSTTIDPCWDISLDLPGSCTSFWPMSPGRESSVNGESHIPGITTLTDCLRRFTRPEHLGSSAKIKCGSCQSYQESTKQLTMNKLPVVACFHFKRFEHSAKQRRKITTYISFPLELDMTPFMASSKESRMNGQLQLPTNSGNNENKYSLFAVVNHQGTLESGHYTSFIRHHKDQWFKCDDAVITKASIKDVLDSEGYLLFYHKQVLEHESEKVKEMNTQAY
notes: ubiquitin-specific peptidase 27X (USP27X), human cDNA cloned into pGEX-1λT (plasmids section) or pGEX-4T-1 (pull-down section); also called GST-USP27X-WT; Recombinant GST-USP27X; source: E. coli BL21, purified (GST beads)
